In the supplement of paper PMC10567573:

B1: KCNA1 (parent)
chain: LKASMRELGLLIFFLFIGVILFSS

Variants of: B1
Assay: protein stability index of a GFP-peptide fusion (GPS, HEK-293T) (PSI 1-6); higher = more stable
Settings: c terminus: a fixed tail appended
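Note: lentivirally expressed fusions sorted by FACS into six bins by GFP to DsRed ratio, PSI derived from sequencing read proportions per bin multiplied by bin number.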

Protein stability index of substitutions, site by site:
L11: P 1.89; H 2.95; G 3.63; R 3.65; A 3.12; E 2.36; T 4.58
M5: Y 2.42; R 1.76; K 1.94; V 2.79; L 1.82; W 1.78; I 2.19; C 2.92
G9: W 1.54; P 3.05; T 1.72; L 1.83; R 2.48; M 2.37; K 3; A 1.75; H 1.8
S23: M 2.35; N 2.41; H 2.15; F 2.15; R 3.62; K 3.15
S24: F 2.02
V19: H 4.02; T 3.34; P 2.51; I 2.27; S 3.99; F 1.99; Y 1.86; C 1.65
F22: P 2.64; Q 3.69; K 2.81; H 3.76; R 2.24; M 2.98; T 3.72
L21: T 2.68; I 2.17; S 3.5; K 1.88; Q 3.29
E7: Q 1.68; V 1.99; F 1.84; H 2.29; S 1.88; K 2.21; D 2.72; G 2.13
R6: D 3.02; H 3.36; S 2.88; A 3.59; P 2.36; I 3.16; Y 3.07
I12: K 2.8; V 1.35; P 1.95; W 3.17; M 2.02; F 2.38; S 1.31; T 4.06; A 1.87
I17: K 2.83; F 2.79; V 2.74; T 2.48; D 2.29; G 2.88; Y 2.24; N 4.03; S 2.3
F16: P 2.96; L 2.91; G 3.06; A 2.14; W 2.38
A3: E 1.78; H 2.89; V 1.67; Y 2.06; Q 2.12; I 1.53; C 1.92; W 2.14
F14: G 3.88; A 4.15; K 2.65; W 3.78; M 2.48; S 3.66; P 4.04
K2: Y 2.35; F 2; H 2.54; Q 3.04; P 2.02; N 2.18; S 2.19; L 1.81
S4: C 2.87; G 1.91; T 2.46; P 3.03; L 4.39; K 1.62; R 2.09; A 3.21
L15: R 2.01; I 1.55; M 1.7; F 1.79; K 2.54; C 2.37
L10: F 2.27; Q 2.94; I 2.42; P 2.75; N 4.61; Y 2.13
F13: A 1.57; K 2.76; P 3.61; Q 4.29; M 1.32; E 2.6; L 2.16; D 3.37; S 3.56
I20: E 2.38; V 3.45; D 3.22; Q 2.9
G18: S 3.74; K 2.44; T 3.2; W 2.21
L8: G 1.65; A 2.58; F 2.39; S 2.08; M 2.26; K 2.58; V 2.42; P 3.22
L1: S 1.05; G 3; W 1.56; K 1.58; C 2.3; E 1.93; Q 2.04; Y 2.76; H 3.89; P 1.82
